Reference: patent publication US20090312247

Experiments:
[1] = system: full-length NPRA (SEQ ID NO: 2)
[2] = system: FLAG-epitope tagged NPRA stably over-expressed in HEK293 cells (HEK-NPRA cells)
[3] = system: 5'-FLAG epitope-tagged sNRF^(806-900)
Sequence of 5'-FLAG epitope-tagged sNRF^(806-900) (chain, as listed by the source): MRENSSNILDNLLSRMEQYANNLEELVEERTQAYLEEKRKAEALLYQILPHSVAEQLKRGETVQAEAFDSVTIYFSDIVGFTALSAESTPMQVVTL

Sequence of full-length NPRA (SEQ ID NO: 2) (chain, as listed by the source): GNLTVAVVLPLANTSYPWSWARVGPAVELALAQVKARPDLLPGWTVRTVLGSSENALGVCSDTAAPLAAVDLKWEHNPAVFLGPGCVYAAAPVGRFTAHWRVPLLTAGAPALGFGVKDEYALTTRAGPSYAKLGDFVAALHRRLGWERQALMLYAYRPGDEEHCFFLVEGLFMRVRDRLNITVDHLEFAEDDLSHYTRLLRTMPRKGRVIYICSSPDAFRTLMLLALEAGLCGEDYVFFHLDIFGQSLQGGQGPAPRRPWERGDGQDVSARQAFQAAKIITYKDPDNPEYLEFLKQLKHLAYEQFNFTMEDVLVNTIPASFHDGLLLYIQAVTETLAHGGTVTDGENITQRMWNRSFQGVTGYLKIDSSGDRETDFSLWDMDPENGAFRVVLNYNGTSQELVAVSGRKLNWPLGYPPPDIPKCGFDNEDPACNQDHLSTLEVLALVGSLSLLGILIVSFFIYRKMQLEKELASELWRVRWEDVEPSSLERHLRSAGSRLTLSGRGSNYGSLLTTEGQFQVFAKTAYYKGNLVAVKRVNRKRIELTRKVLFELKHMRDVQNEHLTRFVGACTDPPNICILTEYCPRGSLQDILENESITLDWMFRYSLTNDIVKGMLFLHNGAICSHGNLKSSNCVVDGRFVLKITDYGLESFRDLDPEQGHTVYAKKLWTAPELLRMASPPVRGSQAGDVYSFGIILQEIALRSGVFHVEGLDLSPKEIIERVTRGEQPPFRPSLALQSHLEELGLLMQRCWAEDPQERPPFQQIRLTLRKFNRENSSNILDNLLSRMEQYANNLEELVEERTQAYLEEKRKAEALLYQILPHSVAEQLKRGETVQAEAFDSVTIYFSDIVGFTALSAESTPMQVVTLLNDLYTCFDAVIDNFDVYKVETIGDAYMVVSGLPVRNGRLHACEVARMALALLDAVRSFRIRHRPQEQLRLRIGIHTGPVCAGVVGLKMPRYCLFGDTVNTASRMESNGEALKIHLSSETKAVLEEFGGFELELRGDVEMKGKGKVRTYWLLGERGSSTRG

recombinant PKG
phosphorylation ([35S]ATPγS incorporation, autoradiography of Cos7 membrane lysates) [1]: SDS page gels demonstrated a phosphorylated 137 kD protein that corresponded to full-length NPRA

cGMP-dependent protein kinase I (PKG) in HEK-NPRA cells
ANP-induced phosphorylation of a 137-kD protein ([35S]ATPγS, autoradiography) [2]: Robust phosphorylation of a 137-kD protein occurred in the NPRA-expressing cells, but not in control cells

cGMP-dependent protein kinase I (PKG), endogenous in neonatal rat cardiac fibroblasts
ANP-induced NPRA phosphorylation in cardiac fibroblasts ([35S]ATPγS incorporation) [3]: both KT5823 or expressed sNRF^(806-900) protein reduced ANP-induced NPRA phosphorylation to control levels
